The assay deals with β-secretase (Homo sapiens, UniProt P56817). Nature of the assay: β-secretase cleavage of peptide substrates and peptide libraries followed by LC/MS. Type of assay: biochemical. Conditions: for Relative rates of hydrolysis: hydrolysis by β-secretase, Swedish mutant EVNLDAEF (SEQ ID NO: 257) = 1, each peptide 1 μM, pH 4.5, 37° C.; for rate of hydrolysis by β-secretase, times faster than the Swedish mutant sequence (SEQ ID NO: 257): relative to Swedish mutant APP sequence, peptides incubated simultaneously with β-secretase; for rate of cleavage (depletion of full length substrate) of P1′ peptide library components: P1′ peptide library treated with β-secretase, FIG. 2; for formation of C-terminal cleavage products from the P1′ peptide library: FIG. 3. The method, then:
Following synthesis and purification, each of the eight peptide libraries was incubated with the enzyme β-secretase and the relative rates of cleavage of each individual peptide library component was followed with liquid chromatography/mass spectrometry (LC/MS) with analysis of both the depletion of the full length peptide substrate, as well as the formation of peptide cleavage fragments. The enzyme β-secretase was incubated at concentrations ranging from 5 to 50 nM at pH 4.5 with each of the peptide libraries and/or mixtures of synthetic peptide substrates.
The mixtures of substrates and enzyme were incubated in an Agillent Technology 1100 series liquid chromatograph with a temperature controlled autosampler. The temperature for all β-secretase enzymatic assays was held constant at 37° C. A 100 μl aliquot of each reaction mixture was injected onto a 1×50 mm C18 reverse phase 1c column (Metachem Technologies Inc., Torrance, Calif.) every two hours to monitor reaction progress. After injection, a highly optimized solvent gradient was delivered to the column to maximize resolving power for each of the substrate library components. […] After the LC/MS run, the data were processed by selected-ion chromatograms for each of the peptide substrate library components by extracting 0.5 Da mass windows surrounding the calculated mass values of each of the peptides.

Sequence of β-secretase (P56817 46-501): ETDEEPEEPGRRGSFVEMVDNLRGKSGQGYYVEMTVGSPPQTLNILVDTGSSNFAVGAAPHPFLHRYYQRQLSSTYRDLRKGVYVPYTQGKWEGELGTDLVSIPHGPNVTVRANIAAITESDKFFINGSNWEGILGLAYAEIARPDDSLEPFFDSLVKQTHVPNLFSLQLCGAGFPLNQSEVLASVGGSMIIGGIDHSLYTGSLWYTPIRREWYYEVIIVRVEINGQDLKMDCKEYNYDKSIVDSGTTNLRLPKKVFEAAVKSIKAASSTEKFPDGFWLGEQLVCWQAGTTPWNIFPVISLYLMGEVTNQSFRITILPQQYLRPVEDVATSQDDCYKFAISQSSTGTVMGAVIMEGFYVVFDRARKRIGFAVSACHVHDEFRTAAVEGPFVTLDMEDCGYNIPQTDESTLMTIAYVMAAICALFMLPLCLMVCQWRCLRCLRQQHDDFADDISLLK

Turning to EVNFAAEF (Beta-Secretase Cleavage Site), the “Relative rates of hydrolysis” value is reported as 17. EVNFAVEF (Beta-Secretase Cleavage Site): the “Relative rates of hydrolysis” value turned out to be 30 and the “rate of hydrolysis by β-secretase, times faster than the Swedish mutant sequence (SEQ ID NO: 257)” value is “roughly 30 times”. With EVNFEAEF (Beta-Secretase Cleavage Site), the “Relative rates of hydrolysis” value is 17. EVNFEVEF (Beta-Secretase Cleavage Site): the “Relative rates of hydrolysis” value turned out to be 60 and the “rate of hydrolysis by β-secretase, times faster than the Swedish mutant sequence (SEQ ID NO: 257)” value was found to be 60 times.

On to “EVNLDAEF (Beta-Secretase Cleavage Site) [8-mer of Swedish mutant APP around the β-secretase cleavage site, reference compound]”, for which the “rate of cleavage (depletion of full length substrate) of P1′ peptide library components” value (“rate of cleavage” for short) was “intermediate”, the “formation of C-terminal cleavage products from the P1′ peptide library” value is on record as “less conducive to β-secretase hydrolysis than either Glu or Ala” and the “Relative rates of hydrolysis” value is given as 1. Take “P1′=Glu: P1′ peptide library component: Swedish mutant APP 8-mer with Glu at P1′ (EVNLEAEF)”: the “rate of cleavage” value was “most rapidly hydrolyzed”; the “formation of C-terminal cleavage products from the P1′ peptide library” value was “more rapid and comparable rates of formation”. Consider “P1′=Gly: P1′ peptide library component: Swedish mutant APP 8-mer with Gly at P1′ (EVNLGAEF)”, for which the “rate of cleavage” value is reported as “not cleaved”. On the same count and under the same terms, then “P1′=Pro: P1′ peptide library component: Swedish mutant APP 8-mer with Pro at P1′ (EVNLPAEF)”, with “not cleaved”.

The values above are taken from patent US7132401B2, “Beta-secretase substrates and uses thereof” (Merck & Co., Inc., priority 2002, dated 2006).
